According to patent US8278063B2, “Methods for degrading toxic compounds” (Commonwealth Scientific and Industrial Research Organisation, priority 2007, dated 2012):

Key:
MheI = MheI (Nocardioides sp., UniProt C8CP46); test: Enzyme assays and determination of kinetic constants of purified MheI (HPLC); conditions: 1-40 μM carbendazim, 200 mM sodium phosphate buffer, 22° C.
Protocol: (§1) Enzyme assays were performed in 96 well microtiter plates (Agilent catalogue number) at 22° C. The assay mixture typically contained 20 μg bovine serum albumin, 0.022 μg purified MheI and 1-40 μM carbendazim in a final volume of 200 μl of 200 mM sodium phosphate buffer. Enzymatic reaction was stopped by adding 5 μl of formic acid after 10 minutes and the initial velocities were measured using HPLC. All these assays were performed in triplicate.
COC(=O)Nc1nc2ccccc2[nH]1 = test: purified protein, by the assay type; conditions: other: purified MheI, 1-40 μM carbendazim, 200 mM sodium phosphate buffer, 22° C.
Protocol: as §1

Chain of MheI (C8CP46 whole entry): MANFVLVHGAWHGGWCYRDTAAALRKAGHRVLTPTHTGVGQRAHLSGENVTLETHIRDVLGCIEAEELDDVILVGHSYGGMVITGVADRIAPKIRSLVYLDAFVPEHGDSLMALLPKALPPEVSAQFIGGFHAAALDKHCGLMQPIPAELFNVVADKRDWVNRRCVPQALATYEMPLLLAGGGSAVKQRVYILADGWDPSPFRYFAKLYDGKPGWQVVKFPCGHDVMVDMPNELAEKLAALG

| Compound | Km (MheI) [µM] | Km (COC(=O)Nc1nc2ccccc2[nH]1) [µM] | kcat (COC(=O)Nc1nc2ccccc2[nH]1) [per second] |
| --- | --- | --- | --- |
| COC(=O)Nc1nc2ccccc2[nH]1 [carbendazim] | 6.1 | – | – |
| MheI (Nocardioides sp. SG-4G) | – | 6.1 | 120 |
